Source: patent publication US20220073563A1

Target: GLP-2R (UniProt O95838)
Test: cell-based or functional assay

GLP-2R, sequence (O95838 whole entry): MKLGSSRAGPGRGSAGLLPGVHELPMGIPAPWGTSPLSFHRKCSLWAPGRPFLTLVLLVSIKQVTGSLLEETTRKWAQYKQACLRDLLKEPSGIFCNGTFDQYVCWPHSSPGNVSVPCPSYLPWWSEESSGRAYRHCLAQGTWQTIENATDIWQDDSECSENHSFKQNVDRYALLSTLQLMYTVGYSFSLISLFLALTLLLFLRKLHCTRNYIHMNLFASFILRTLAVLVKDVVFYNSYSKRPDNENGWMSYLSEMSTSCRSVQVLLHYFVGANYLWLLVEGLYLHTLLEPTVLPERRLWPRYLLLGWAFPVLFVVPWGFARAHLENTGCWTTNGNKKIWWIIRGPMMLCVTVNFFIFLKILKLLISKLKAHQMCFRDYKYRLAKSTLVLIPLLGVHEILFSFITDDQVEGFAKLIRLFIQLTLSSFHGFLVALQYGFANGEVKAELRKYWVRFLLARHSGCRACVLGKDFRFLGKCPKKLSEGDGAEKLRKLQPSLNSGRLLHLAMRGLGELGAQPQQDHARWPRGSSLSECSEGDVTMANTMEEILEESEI

EC50, luciferase reporter in GLP-2R/Luc-CHO cells (6 h stimulation): 4.7 nM
Substance: GLP-2 (from UniProt P01275 146-178) (peptide)
